Source: patent US20240352099A1 (JULIUS MAXIMILIANS UNIVERSIT T W RZBURG, published 2024)

T1: Pra1 on C. albicans strain SC5314 hyphae (Candida albicans, UniProt P87020 16-299)
T1 construct: whole, on cells; The stained target is the whole fungal cell; also called C. albicans hyphae
T1 sequence (looked up): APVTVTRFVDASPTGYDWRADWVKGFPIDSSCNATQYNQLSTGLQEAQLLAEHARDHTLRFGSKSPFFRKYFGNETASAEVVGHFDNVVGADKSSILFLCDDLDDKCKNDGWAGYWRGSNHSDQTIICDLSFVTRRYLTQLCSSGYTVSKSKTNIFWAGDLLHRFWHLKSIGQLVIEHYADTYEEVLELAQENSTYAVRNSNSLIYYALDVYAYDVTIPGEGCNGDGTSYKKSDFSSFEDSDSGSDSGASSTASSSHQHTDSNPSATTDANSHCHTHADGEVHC

T2: Tef1 on C. albicans strain SC5314 hyphae (Candida albicans, UniProt P0CY35 2-458)
T2 construct: whole, on cells; The stained target is the whole fungal cell; also called C. albicans hyphae
T2 sequence (looked up): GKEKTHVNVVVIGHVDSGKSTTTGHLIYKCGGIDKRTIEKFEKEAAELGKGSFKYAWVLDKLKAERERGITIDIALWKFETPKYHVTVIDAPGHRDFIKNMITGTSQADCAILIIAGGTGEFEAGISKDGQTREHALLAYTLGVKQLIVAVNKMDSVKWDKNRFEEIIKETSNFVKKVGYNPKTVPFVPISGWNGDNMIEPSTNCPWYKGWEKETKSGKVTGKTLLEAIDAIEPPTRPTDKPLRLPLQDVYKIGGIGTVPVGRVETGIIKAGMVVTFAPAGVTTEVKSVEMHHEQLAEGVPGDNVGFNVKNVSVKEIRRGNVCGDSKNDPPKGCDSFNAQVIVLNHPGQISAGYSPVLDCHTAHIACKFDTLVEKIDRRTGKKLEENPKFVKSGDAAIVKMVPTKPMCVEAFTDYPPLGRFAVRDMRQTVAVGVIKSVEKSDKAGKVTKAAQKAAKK


How the values were obtained:
[1] = target: T1, Pra1 on C. albicans strain SC5314 hyphae; assay: flow cytometry and confocal microscopy, summary
[2] = target: T2, Tef1 on C. albicans strain SC5314 hyphae; assay: flow cytometry on C. albicans

| Binder | binding result [1] | binding result [2] |
| --- | --- | --- |
| monoclonal antibody 8C3 directed against Pra1 of Candida albicans, produced by the hybridoma cell line DSM ACC 3369 (antibody, mouse IgG1, kappa, V domains shown, Mouse IgG1, kappa from hybridoma; also called mAb 8C3; anti-Pra1 mAb 8C3) VH: EVQLVESGGDLVKPGGSLKLSCAASGFTFSTYGMSWVRQTPDKRLEWVATISSGGSYTYYPDSVKGRFTISRDNVKNTLYLQMSSLKSEDTAMYYCARQGLDDNYAEWYFDVWGAGTTVTVSS VL: DILLTQSPATLSVTPGETVSLSCRASQSIYKNLHWYQQKSHRSPRLLIKYASDSISGIPSRFTGSGSGTDYTLSINSVKPEDEGKYYCLQGFSTPWTFGGGTKLEIKR | binds |  |
| monoclonal antibody 5E1 directed against Tef1 of Candida albicans, produced by the hybridoma cell line DSM ACC 3368 (antibody, Mouse IgM, kappa from hybridoma; also called mAb 5E1; anti-Tef1 mAb 5E1) heavy: EVKLVESGGGLVKPGGSLKLSCAASGFTFSSYAMSWVRQTPEKRLEWVASISSGGSTYYPDSVKGRFTISRDNARNILYLQMSSLRSEDTAMYYCARGYDGYDYWGQGTTLTVSSESQSFPNVFPLVSCESPLSDKNLVAMGCLARDFLPSTISFTWNYQNNTEVIQGIRTFPTLRTGGKYLATSQVLLSPKSILEGSDEYLVCKIHYGGKNRDLHVPIPAVAEMNPNVNVFVPPRDGFSGPAPRKSKLICEATNFTPKPITVSWLKDGKLVESGFTTDPVTIENKGSTPQTYKVISTLTISEIDWLNLNVYTCRVDHRGLTFLKNVSSTCAASPSTDILTFTIPPSFADIFLSKSANLTCLVSNLATYETLNISWASQSGEPLETKIKIMESHPNGTFSAKGVASVCVEDWNNRKEFVCTVTHRDLPSPQKKFISKPNEVHKHPPAVYLLPPAREQLNLRESATVTCLVKGFSPADISVQWLQRGQLLPQEKYVTSAPMPEPGAPGFYFTHSILTVTEEEWNSGETYTCVVGHEALPHLVTERTVDKSTGKPTLYNVSLIMSDTGGTCY light: not shown |  | binds |
